The values below come from publication PMC5715905, “Mechanistic insight into the assembly of the HerA–NurA helicase–nuclease DNA end resection complex” (Nucleic Acids Research, 2017).

In general, stoichiometry N refers to a count of units in the complex or per binding partner. Broadly, the Kd is the concentration at which binding is half-saturated.

B3: HerA helicase, wild type (Sulfolobus solfataricus) (enzyme, S. solfataricus)
chain: MIIGYVIGQATTQEALILAERPVRLGTYVVLEYDNVKALGLITNVTRGSPMLDDNMNDIEIVQRLKQFNNSIPVYTKAKVKMLCDMNNHFLMPDIPPFAGTPAREAEDEELKSIYSQDGQIRIGSLIGKNVEVKLNINSFARHLAILAATGSGKSNTVAVLSQRISELGGSVLIFDYHGEYYDSDIKNLNRIEPKLNPLYMTPREFSTLLEIRENAIIQYRILRRAFIKVTNGIREKLKEGQIPFSTLNSQFYELMKDELETQGNSDKKSSAKDEVLNKFEEFMDRYSNVIDLTSSDIIEKVKRGKVNVVSLTQLDEDSMDAVVSHYLRRILDSRKDFKRSKNSGLKFPIIAVIEEAHVFLSKNENTLTKYWASRIAREGRKFGVGLTIVSQRPKGLDENILSQMTNKIILKIIEPTDKKYILESSDNLSEDLAEQLSSLDVGEAIIIGKIVKLPAVVKIDMFEGKLLGSDPDMIGEWKKVEESEKIAKGFADFGTEIGD
notes: HerA helicase of the thermophilic archaeon Sulfolobus solfataricus; In solution a mix of hexamer and heptamer; the hexamer is the form found with NurA; No tag is named in the purification; Expression and constructs may be described in the supplementary materials and methods; also called apo-HerA; wild-type HerA; source: cells lysed by sonication, lysate heated at 70°C, purified (Heparin HP, …)

In data set [1] the target is B3. The data set can be described thus: native MS; HerA incubated with NurA and a 25 bp blunt-ended dsDNA (protein and DNA 1:1, 30 min at room temperature), no nucleotide, 200 mM ammonium acetate. The following applies: both partners purified.
The target of another data set is T1, HerA K154A (thermophilic archaeon, Sulfolobus …, UniProt Q97WG8 1-500, K154A).
T1 sequence: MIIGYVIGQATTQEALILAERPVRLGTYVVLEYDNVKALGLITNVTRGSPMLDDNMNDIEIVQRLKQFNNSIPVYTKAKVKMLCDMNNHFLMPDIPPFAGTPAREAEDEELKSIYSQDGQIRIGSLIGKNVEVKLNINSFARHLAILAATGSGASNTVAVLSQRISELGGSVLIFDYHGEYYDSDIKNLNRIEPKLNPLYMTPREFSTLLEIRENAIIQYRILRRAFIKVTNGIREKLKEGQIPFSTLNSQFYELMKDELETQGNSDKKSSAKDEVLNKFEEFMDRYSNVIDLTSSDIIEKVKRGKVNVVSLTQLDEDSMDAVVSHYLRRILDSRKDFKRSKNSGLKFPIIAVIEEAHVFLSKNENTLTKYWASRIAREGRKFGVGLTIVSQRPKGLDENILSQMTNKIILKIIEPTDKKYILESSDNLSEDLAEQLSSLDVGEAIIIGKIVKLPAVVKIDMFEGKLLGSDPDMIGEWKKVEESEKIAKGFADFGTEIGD
The experiment in a line: native MS; FA: 5 nM dsDNA, 100 mM NaCl, 20 mM Hepes-NaOH pH 8.0, 30 min room temperature (with nucleotide: 2 mM plus 5 mM MgCl2); native MS: 200 mM ammonium acetate pH 7.0-7.5, 1:1 protein:DNA, 30 min room temperature. The following applies: protein: recombinant; chain copies: 6; blunt.

The target of a further data set is T2, HerA;NurA (thermophilic archaeon, Sulfolobus …, UniProt Q97WG8;Q97WH1 1-500;1-339, |).
T2 sequence 1: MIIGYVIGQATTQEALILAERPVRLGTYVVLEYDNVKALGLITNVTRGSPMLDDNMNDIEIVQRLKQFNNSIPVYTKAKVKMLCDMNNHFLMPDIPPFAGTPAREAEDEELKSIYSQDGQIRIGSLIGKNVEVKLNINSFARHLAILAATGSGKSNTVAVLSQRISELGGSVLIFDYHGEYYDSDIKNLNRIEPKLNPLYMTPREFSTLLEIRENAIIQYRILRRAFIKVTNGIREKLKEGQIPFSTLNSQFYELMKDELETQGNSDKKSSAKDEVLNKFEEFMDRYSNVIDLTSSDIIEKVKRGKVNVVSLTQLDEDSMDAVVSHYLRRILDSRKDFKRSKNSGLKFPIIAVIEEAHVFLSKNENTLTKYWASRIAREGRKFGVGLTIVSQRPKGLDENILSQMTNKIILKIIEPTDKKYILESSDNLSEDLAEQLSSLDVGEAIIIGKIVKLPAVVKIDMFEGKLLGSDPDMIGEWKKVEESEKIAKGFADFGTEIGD
T2 sequence 2: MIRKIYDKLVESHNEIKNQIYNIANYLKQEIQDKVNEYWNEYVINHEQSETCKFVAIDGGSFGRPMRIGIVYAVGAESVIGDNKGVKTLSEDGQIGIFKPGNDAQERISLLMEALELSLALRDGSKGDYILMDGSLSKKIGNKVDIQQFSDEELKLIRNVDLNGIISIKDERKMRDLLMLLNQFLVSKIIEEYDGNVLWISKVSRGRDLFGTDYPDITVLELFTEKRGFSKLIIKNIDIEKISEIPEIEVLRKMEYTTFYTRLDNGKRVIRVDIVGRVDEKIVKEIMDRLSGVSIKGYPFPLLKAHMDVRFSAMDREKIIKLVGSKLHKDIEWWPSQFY
The data set can be described thus: native MS; no nucleotide; dsDNA intact; FA: 5 nM dsDNA, 100 mM NaCl, 20 mM Hepes-NaOH pH 8.0, 30 min room temperature (with nucleotide: 2 mM plus 5 mM MgCl2); native MS: 200 mM ammonium acetate pH 7.0-7.5, 1:1 protein:DNA, 30 min room temperature. The following applies: protein: recombinant;recombinant; tags: ;; chain copies: 6;2; blunt.

Data set [2] concerns the molecule itself. The data set can be described thus: native MS; HerA alone, nucleotide-free (apo), 200 mM ammonium acetate pH 7.0-7.5, nano electrospray; relative intensities by UniDec.
Data set [3] concerns the target T3, HerA (thermophilic archaeon, Sulfolobus …, UniProt Q97WG8 1-500).
T3 sequence: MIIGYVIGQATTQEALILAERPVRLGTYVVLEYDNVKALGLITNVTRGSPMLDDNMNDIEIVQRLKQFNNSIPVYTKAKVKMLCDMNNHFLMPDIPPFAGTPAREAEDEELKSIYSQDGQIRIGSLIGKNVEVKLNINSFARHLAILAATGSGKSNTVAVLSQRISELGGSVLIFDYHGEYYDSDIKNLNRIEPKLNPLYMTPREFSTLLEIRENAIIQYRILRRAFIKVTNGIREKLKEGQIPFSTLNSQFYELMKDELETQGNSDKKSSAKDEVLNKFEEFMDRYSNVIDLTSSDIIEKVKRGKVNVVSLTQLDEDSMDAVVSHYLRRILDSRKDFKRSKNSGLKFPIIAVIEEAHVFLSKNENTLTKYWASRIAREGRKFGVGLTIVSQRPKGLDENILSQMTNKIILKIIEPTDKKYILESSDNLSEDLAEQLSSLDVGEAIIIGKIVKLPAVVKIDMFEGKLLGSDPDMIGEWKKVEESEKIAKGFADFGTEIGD
The experiment in a line: fluorescence anisotropy; no nucleotide; HerA monomer concentration; FA: 5 nM dsDNA, 100 mM NaCl, 20 mM Hepes-NaOH pH 8.0, 30 min room temperature (with nucleotide: 2 mM plus 5 mM MgCl2); native MS: 200 mM ammonium acetate pH 7.0-7.5, 1:1 protein:DNA, 30 min room temperature. The following applies: protein: recombinant; chain copies: 6; label: 5'-fluorescein on strand 1; blunt. (In fluorescence polarisation assays a small probe gives low polarisation when free and higher when bound to something large.)

The target in data set [4] is T3, HerA. The experiment in a line: fluorescence anisotropy; 2 mM ATPgS, 5 mM MgCl2; HerA monomer concentration; FA: 5 nM dsDNA, 100 mM NaCl, 20 mM Hepes-NaOH pH 8.0, 30 min room temperature (with nucleotide: 2 mM plus 5 mM MgCl2); native MS: 200 mM ammonium acetate pH 7.0-7.5, 1:1 protein:DNA, 30 min room temperature. As to conditions: protein: recombinant; chain copies: 6; label: 5'-fluorescein on strand 1; blunt.

The next data set has as its target T4, HerA;NurA H306A (thermophilic archaeon, Sulfolobus …, UniProt Q97WG8;Q97WH1 1-500;1-339, |H306A).
T4 sequence 1: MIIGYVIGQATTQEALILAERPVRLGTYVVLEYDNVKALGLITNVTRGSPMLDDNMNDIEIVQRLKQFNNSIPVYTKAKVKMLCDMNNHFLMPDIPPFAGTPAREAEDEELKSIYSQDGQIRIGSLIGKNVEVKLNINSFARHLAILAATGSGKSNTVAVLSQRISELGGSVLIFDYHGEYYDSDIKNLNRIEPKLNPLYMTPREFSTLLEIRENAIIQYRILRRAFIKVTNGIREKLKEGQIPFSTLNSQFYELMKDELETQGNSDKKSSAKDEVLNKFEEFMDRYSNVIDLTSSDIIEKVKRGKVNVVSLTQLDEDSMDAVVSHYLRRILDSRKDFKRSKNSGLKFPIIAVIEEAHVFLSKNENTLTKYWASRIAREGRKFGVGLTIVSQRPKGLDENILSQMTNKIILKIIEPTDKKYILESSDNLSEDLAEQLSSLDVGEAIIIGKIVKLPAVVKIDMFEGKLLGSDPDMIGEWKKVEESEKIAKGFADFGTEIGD
T4 sequence 2: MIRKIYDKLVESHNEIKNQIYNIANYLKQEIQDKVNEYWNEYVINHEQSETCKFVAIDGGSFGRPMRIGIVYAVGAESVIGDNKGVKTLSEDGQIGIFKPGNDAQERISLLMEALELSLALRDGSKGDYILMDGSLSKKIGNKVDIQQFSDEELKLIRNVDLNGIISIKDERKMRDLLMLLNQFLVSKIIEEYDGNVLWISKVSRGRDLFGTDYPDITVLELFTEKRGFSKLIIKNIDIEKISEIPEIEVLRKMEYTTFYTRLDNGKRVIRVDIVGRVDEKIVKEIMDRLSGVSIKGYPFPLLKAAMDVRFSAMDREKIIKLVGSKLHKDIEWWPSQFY
The experiment in a line: fluorescence anisotropy; no nucleotide; Hill fit; monomeric HerA concentration; FA: 5 nM dsDNA, 100 mM NaCl, 20 mM Hepes-NaOH pH 8.0, 30 min room temperature (with nucleotide: 2 mM plus 5 mM MgCl2); native MS: 200 mM ammonium acetate pH 7.0-7.5, 1:1 protein:DNA, 30 min room temperature. The following applies: protein: recombinant;recombinant; tags: ;; chain copies: 6;2; label: 5'-fluorescein on strand 1; blunt.

“And” between values parts separate entries of the source, which are not always exact repeats. Equal values may be shown once.

B1: NurA H306A, nuclease-inactive mutant (Sulfolobus solfataricus) (enzyme, S. solfataricus)
chain: MIRKIYDKLVESHNEIKNQIYNIANYLKQEIQDKVNEYWNEYVINHEQSETCKFVAIDGGSFGRPMRIGIVYAVGAESVIGDNKGVKTLSEDGQIGIFKPGNDAQERISLLMEALELSLALRDGSKGDYILMDGSLSKKIGNKVDIQQFSDEELKLIRNVDLNGIISIKDERKMRDLLMLLNQFLVSKIIEEYDGNVLWISKVSRGRDLFGTDYPDITVLELFTEKRGFSKLIIKNIDIEKISEIPEIEVLRKMEYTTFYTRLDNGKRVIRVDIVGRVDEKIVKEIMDRLSGVSIKGYPFPLLKAAMDVRFSAMDREKIIKLVGSKLHKDIEWWPSQFY
notes: NurA nuclease of Sulfolobus solfataricus with H306A; Made to prevent dsDNA degradation in the HerA-NurA-dsDNA complex; source: cells lysed by sonication, lysate heated at 70°C, purified (Heparin HP, HiTrap Q HP)
For B1, the binding result in data set [1] is recorded as “binds”.

B2: 25 bp dsDNA (dsDNA)
DNA 1: GTAGTCCGGACGACAAACGCCGACT
DNA 2: AGTCGGCGTTTGTCGTCCGGACTAC
As to B2, the binding result is “no binding” in the data set with HerA K154A and “binds” with HerA;NurA.
For the molecule B3, in data set [2], the “abundance of the heptamer over the hexamer” value is ~10 fold; the “stoichiometry N” value was 6 and 7.

B4: 5'-fluorescein 25 bp dsDNA (dsDNA)
DNA 1: GTAGTCCGGACGACAAACGCCGACT
DNA 2: AGTCGGCGTTTGTCGTCCGGACTAC
As for B4, the values for the Kd with HerA [3], with HerA [4] and with HerA;NurA H306A were 4.85 ± 0.47 µM, 3.22 ± 0.27 µM and 0.51 ± 0.0304 µM, respectively.
